B1: VH:VL chains; a variant is named by its letters at X, in order (parent)
chain 1: QVQLVQSGAEVKKPGASVKVSCKASGYTFTDYXMHWVRQAPGQGLEWMGXVNPNXXXTTYNQKFEGRVTMTTDTSTSTAYMELRSLRSDDTAVYYCARXNXLDXWGQGTTVTVSS
chain 2: DIQMTQSPSSLSASVGDRVTITCSVSSSVSSIYLHWYQQKPGKAPKLLIYSTSNLASGVPSRFSGSGSGTDFTLTISSLQPEDFATYYCQVYSGYPLTFGGGTKVEIK

Variants of B1 are the subject of the series. Kind of series: yeast display scFab, FACS + sequencing. An outline of the steps: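 The non-specific binding call was based on sorted and sequenced yeast displaying a heavy-chain CDR mutant scFab library. Labelling used anti-Myc with biotinylated ovalbumin (260 μg/mL in PBSB, 3 h, room temperature) or soluble membrane proteins (130 μg/mL, 20 min on ice), and FACS collected the top 25% and bottom 10% of binders in two replicates. Positive meant present in ≥3 of 4 pooled positive samples and in no negatives, and negative meant the converse.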
Consider DATGGYAV, for which the non-specific binding call is given as “no binding”.
Under VATRGYLV stands “binds”.
Under DARGGAVY stands “no binding”; under DARGGAVV, “no binding”; under DARGGAAV, “no binding”.
In the case of FATKGFGD it was “binds”.
FARGGDAV: the non-specific binding call is “no binding”.
Consider AATTDAGD, for which the non-specific binding call is “no binding”.
In the case of SARTDFWF chain 1 K19N it was “binds”; in that of FATGSDGA, “no binding”; in that of DATGGALD, “no binding”.
DATGGDAD: the non-specific binding call was “no binding”.
In the case of DATGGAVA it was “no binding”; in that of SATKTVVV, “binds”.
In the case of VATGGYAV, the non-specific binding call is on record as “no binding”.
Under DATGGSGA stands “no binding”.
In the case of DATGGSGD it was “no binding”.
In the case of DATGGSSY it was “no binding”; in that of DATGGSSS, “no binding”; in that of DATGGSSV, “no binding”.
As to DATGGSSA, the non-specific binding call was “no binding”.
With FARKSYGA, the non-specific binding call is “binds”.
As for VATRGFWD, the non-specific binding call is “no binding”.
In the case of YATEAFSD it was “binds”; in that of DARGGAGA, “no binding”; in that of YARGGDLD, “no binding”.
Turning to YARGTAVD, the non-specific binding call is on record as “binds”.
In the case of YATKGFGD it was “binds”; in that of YATEDSGF, “no binding”; in that of YATRGAAA, “binds”.
In the case of FARGGYVA it was “binds”.
In the case of AATGSAWA it was “no binding”.
Consider YATGDDGV, for which the non-specific binding call was “no binding”.
For YATGGYAV, the non-specific binding call was “no binding”.
In the case of DARGGSSS it was “no binding”.
Under DARGGSSA stands “no binding”.
Under DARGGSSY stands “no binding”; under DARGGSSV, “no binding”; under DATGGAAA, “no binding”.
In the case of VATGDDGV, the non-specific binding call is “no binding”.
For DATEDDSA, the non-specific binding call is given as “no binding”.
Under DATRSSWD stands “no binding”.
As to DARGGDWV, the non-specific binding call is “no binding”.
Under DATGGDWA stands “no binding”.
FARKGSGA: the non-specific binding call was “binds”.
In the case of FARKSFGS it was “binds”; in that of DATGGSLD, “no binding”; in that of FARGASGV, “binds”.
In the case of YARRGSGV it was “binds”; in that of SARGGYWY, “binds”.
Consider DARGGDGS, for which the non-specific binding call is “no binding”.
Under VATKGFVV stands “no binding”; under FARGGSAD, “no binding”.
For the variant DARGAYLV, the non-specific binding call is on record as “no binding”.
In the case of YARRGDGA it was “binds”; in that of YARRGSLD, “binds”; in that of YATGDDVA, “no binding”.
Under SARKGDVA stands “no binding”; under VATGDDWV, “no binding”.
In the case of DATGNVWS it was “binds”; in that of VARKGVGV, “binds”; in that of DARRGSGD, “no binding”.
Regarding FATEGASA, the non-specific binding call is “no binding”.
Turning to DATGGAGD, the non-specific binding call was “no binding”.
In the case of DATGGSVD it was “no binding”; in that of YARRDVGA, “binds”.
Under YATAADWD stands “no binding”; under DATGGDVY, “no binding”; under DATGGDVF, “no binding”.
Under DATGGDVV stands “no binding”.
For DATGGDVD, the non-specific binding call is “no binding”.
Under DATGGDVA stands “no binding”; under VATGDSLV, “no binding”; under AATRNVGV, “binds”.
Regarding FARKSDSS, the non-specific binding call is on record as “no binding”.
Under DATGGASD stands “no binding”; under FATRASGD, “binds”; under SARTDFWF, “binds”.
In the case of FARKGDGV it was “no binding”.
For the variant FATGGSGD, the non-specific binding call is listed as “binds”.
In the case of DATRGAGY it was “no binding”; in that of DATRGAGD, “no binding”.
Under DARGGFGV stands “no binding”; under YATEGVWV, “binds”.
Take VATRAVGA: the non-specific binding call was “binds”.
Under DARGGSAD stands “no binding”; under DARGGSLD, “no binding”; under DARGGSLS, “no binding”.
In the case of YATAADAD it was “no binding”; in that of AATTDDAV, “no binding”; in that of VARGGSVD, “no binding”.
In the case of YATEDDWV it was “no binding”; in that of DATGGDGA, “no binding”.
As to DATGGDGS, the non-specific binding call is given as “no binding”.
For the variant DATGGDGY, the non-specific binding call is reported as “no binding”.
In the case of DATGGDGV it was “no binding”; in that of VATGDDVA, “no binding”.
In the case of VATGDDVD it was “no binding”.
In the case of VATGDDVY it was “no binding”; in that of YARGGAGA, “no binding”; in that of DARGGDVY, “no binding”.
Consider DATGGFGV, for which the non-specific binding call is listed as “no binding”.
As to VATGSSGA, the non-specific binding call is “no binding”.
In the case of YATKGAWA it was “binds”.
Under FATKGAWV stands “binds”; under DARGGDAA, “no binding”; under VATGDFGV, “no binding”.
Under AATTDSGV stands “no binding”.
Regarding AATTDSGD, the non-specific binding call is recorded as “no binding”.
Under DARRGAGV stands “no binding”; under YARRAAVS, “binds”.
Under SARRGDWA stands “binds”; under YARTGFGA, “binds”.
